# Test results taken from paper PMC7784689, “Structural mechanism of phospholipids translocation by MlaFEDB complex” (Cell Research, 2020).
# B1: MlaFEDB (Escherichia coli K-12) (protein)
# chain: MEQSVANLVDMRDVSFTRGNRCIFDNISLTVPRGKITAIMGPSGIGKTTLLRLIGGQIAPDHGEILFDGENIPAMSRSRLYTVRKRMSMLFQSGALFTDMNVFDNVAYPLREHTQLPAPLLHSTVMMKLEAVGLRGAAKLMPSELSGGMARRAALARAIALEPDLIMFDEPFVGQDPITMGVLVKLISELNSALGVTCVVVSHDVPEVLSIADHAWILADKKIVAHGSAQALQANPDPRVRQFLDGIADGPVPFRYPAGDYHADLLPGS
# notes: mlaFEDCB operon in pET20b, C-terminal His-tag on MlaB; host E. coli C43(DE3); purified in DDM, reconstituted in MSP1D1/POPG nanodisc; MlaC only in traces (by MS); with Intermembrane phospholipid transport system permease protein MlaE
# Substrate: Nc1ncnc2c1ncn2[C@@H]1O[C@H](COP(=O)(O)OP(=O)(O)OP(=O)(O)O)[C@@H](O)[C@H]1O
# Test: purified protein
# Format: biochemical, Escherichia coli
# Details: nanodisc-embedded complex (POPG), 0-4 mM ATP, 37 °C, 30 min
protein,measurement,value
B1,Km,90 ± 20 µM
